According to US20250376507A1, “NOVEL TUMOR ANTIGEN-TARGETING ANTICANCER AGENT” (INDUSTRY FOUNDATION OF CHONNAM NATIONAL UNIVERSITY, priority 2022, published 2025):
Where “and” joins values, the source holds several entries; their conditions need not be identical. Identical values can stand only once.

How the values were obtained:
[1] = L-ASNase activity analysis (asparaginase activity kit); assay type: biochemical; details: 25° C.
Protocol: The L-ASNase enzyme activity of the recombinant proteins was measured with an asparaginase activity analysis kit using an OxiRed probe (Abcam, USA). 1 International unit (IU) was defined as the amount of enzyme generating 1.0 μmol of Asp per minute at 25° C.

[2] = Thermal stability analysis at 55° C.; assay type: physicochemical; details: after 180 min
Protocol: Briefly, 200 μL of PASylated recombinant protein or L-ASNase (1 mg/mL) was incubated in a thermal cycler (Finepcr, Korea) at 55° C. for 30-180 min. The residual enzymatic activity of the proteins was measured using an asparaginase activity analysis kit as described above. The residual activity (%) at each incubation time was calculated relative to the sample activity at time 0.

[3] = In vivo pharmacokinetic analysis; parameters: species or system BALB/c mice; details: 10 IU intravenous, mouse serum
Protocol: Six-week-old female BALB/c mice (Orient Company, Korea) were randomly assigned to different treatment groups (n=3) and intravenously injected with 10 IU of PASylated recombinant protein. Then, blood samples were taken from the eyes at the specified time (0-52 h) and left at 4° C. for 40 min. After centrifugation at 12,000 rpm for 20 min, the serum fraction was obtained and stored at −80° C. before further analysis. PASylated recombinant protein in serum was assessed using the ELISA method described above. The amount of serum recombinant protein was converted to enzyme activity.

CT-26 cells [4] = test: Cell viability (CCK-8) of CT-26 cells; assay type: cell-based, mouse
Protocol: CT-26 and MC-38 cells (10^4 cells per well) were seeded into three wells of a 96-well plate and incubated at 37° C. The next day, the culture medium was replaced with 100 μL of fresh medium containing the above concentrations of anticancer agents. After incubation at 37° C. for 4 h, the culture medium was removed and the cells were washed three times with PBS. […] Finally, CCK-8 reagent (10 μL/well) was added for 3 h at 37° C., and the amount of color in each sample was measured at OD450.

CT-26 cells [5] = test: Flow cytometry for ecto-CRT exposure in L-ASNase-treated CT-26 cells; assay type: cell-based, mouse; details: 200 IU/mL, 24 h
Protocol: FIG. 6a is a graph showing the analysis of the cytotoxicity enhanced by CRT3LP and CRT4LP in tumor cells treated with ICD-induced anticancer agents and the viability of tumor cells treated with L-ASNases. CT-26 cells (4×10^4) cultured overnight were treated with L-ASNases (200 IU/mL) in 96-well plates and viability was measured at the indicated times. The viability at each time was calculated relative to time 0. Cells were stained with anti-CRT antibodies.
FIG. 6b is a graph representing the results of flow cytometry histogram analysis for ecto-CRT. Filled black lines stained with isotype antibodies; red lines stained with anti-CRT antibodies.

B1: L-ASNase: L-asparaginase, enzyme that hydrolyzes L-asparagine; purchased from Prospec, used as free control (protein)
chain: LPNITILATGGTIAGGGDSATKSNYTAGKVGVENLVNAVPQLKDIANVKGEQVVNIGSQDMNDDVWLTLAKKINTDCDKTDGFVITHGTDTMEETAYFLDLTVKCDKPVVMVGAMRPSTSMSADGPFNLYNAVVTAADKASANRGVLVVMNDTVLDGRDVTKTNTTDVATFKSVNYGPLGYIHNGKIDYQRTPARKHTSDTPFDVSKLNELPKVGIVYNYANASDLPAKALVDAGYDGIVSAGVGNGNLYKTVFDTLATAAKNGTAVVRSSRVPTGATTQDVEVDDAKYGFVASGTLNPQKARVLLQLALTQTKDPQQIQQIFNQY
modifications: L-asparaginase
notes: L-asparaginase, enzyme that hydrolyzes L-asparagine; purchased from Prospec, used as free control
In the case of B1, the “enzymatic activity (specific activity)” value [1] is reported as about 7.2 IU/nmol, the “residual enzymatic activity, of the initial activity” value [2] is reported as 16.4% and the half-life [3] is reported as 1.8 h and 1.79 ± 0.22 h. The “reduction of cell viability in cells pretreated with anticancer agents” value (CT-26 cells [4]; 1 IU/mL, 24 h after pretreatment) was “barely reduced”, the cell viability (CT-26 cells [4]; 200 IU/mL, 24 h, no anticancer pretreatment) was “progressive decrease in viability” and the “CRT exposure (ecto-CRT)” value (CT-26 cells [5]) was “no significant CRT exposure”.
